Data published in a protein production outcome set (Wang et al. 2014).

test: label from the status in PepcDB records

| Sequence | protein production |
| --- | --- |
| MKHKHGWASVVCCFVLFIVVCLSLTMHVQGAFRAAGHPEIGLLFFTLPGAVASFCSHRREVIRPLIGAMLAAPFCLVLMRVVFMPTRSFWQELAWLFSAVFWCALGALCYLFISSLFSHRRKKRR | failed |
| MKHLVTTALAYTNGPLHLGHARSTYIPADIYTRYLRLKGEEVIHVGGTDNHGVPITLTAEREGVKPIDIVDRYHNAIKADLDSLNVSFDTFGRTHSDIHIETAQEFYSKLKENGYIYEKEIEQFYCEKCDMYLADRYVEGICPFCEGEARGDHCEVCGRHLEPTELVNPYCIHCNSKPEIKRTTHYFFKLSAMQDVLKEYIENSPEMPEHVKNMALRWIEELHDWDVSRNIKWGVPIPGCDDQVMYVWIEAPIGYVSFTKQLGDLWKDYWLENTGDSKISHFIGKDITVHHAVFWPGILKGIGGYKMPNAVVSGGYLTLENKKMSTSKNWVVWVKDFIENFSSDYLRYFFMINAPLNRDTDFSWDDFQKRINTELIDIIGNFTHRTLVFTERKFGSTPVVDLNQLKDEDKKLISKCEDTLNRVDSLIREYNFKDALMEIIHLAKEGNGYFQGMAPWAIKDEERLKEVMYTCSVALKYIVYLLSSFMPEKTALLLEYMNEELDLEVRGNPLKKPKVIFTKVSDEDISRMKENLMKATKKAETKSDEKSKKVKSGEKMDIIDIDYFGNIDLRVGQILEVEEVPRSKKLYKITADLGDEKRQIVSGLKGAYEAEELVGKKVIIICNLKPAKLCGVESQGMLLAAEDDSIVSLLALDRDLPVGSKIH | failed |
| MKHSGFQAKRLIQLALPVLIAQVTQTMMGFIDTVMAGRVSAVDMAAVAVGTSLWLPAILFVQGLLMAFTPLFAHHNGANNQKAIQPLAFQGAYLALIGGLGVMVFLASAPLVLSHMNLEPQLYNLTIGYIDGILWGAPAFVLYQVLRGCSEGISYTLPTMVIGFVGLAVNIPANYIFIYGHFGIPAMGGAGCGIATALVFWAMLIAMAIYMQFHKKFAALAPFSQFHRPDFATMKKMTKLGLPIAMALFFEVSLFAIIALLLAPLGATVVASHQIALNFSAIVFMLPLSIGIAVSIRIGYYLGRDRADISAVVAKVGLLLALSLALSTAILTVLFRFQIAELYNSDPEVVVLAGSLMLMAALYQLSDSVQVVAAGALRGYKDTRSAFYITLFSYWGIGMSLGYTLAYTDFIVPAMGAHGFWTGLIAGLTSAALLFFIRLRYIQKHRVHLSLIEGDSVHH | failed |
| MKHYSHGIDGLRSGLSPSAKPFAIGSSSSPAFSLKSEHEDSIWGDYTLDLSFLSSDDQRSGLDDDDSLSNLSRDVETNKEGLVLEEKIASSGKVLVNPNPSFSKLPEVLMKSSDVVGDAKLGLSCVSEKSSTESDLDESEEDSPCWKGMLSHKSLASGTKSMTSRRSTDDLSGFRKLNPLAPQFIPSSSKKKLETDGEKCEETSSSSLKKSLSSTFPSSSGEFDLTDPPLEDGRNDAAEKTSILTHNADEILGFVTSDSVSKTVSMLDSRNEFQPSKRLDPLAPVFVPSSAKLGPSVHEKLGDFVVNAYSTSALASSHVKSLDKGKVVTSSGEVGHSFKSQYGGHDFGSTSSYGPWIESEVGITEYAKLGSSNKSQGQRRLNPLARQFSLADAKQKPYGYGKNQAADDLSLVVNTSGLYIPARYREDHNVVDADLAQSSVNVERFLPNMSHGGSSLITPKADSNFGSTKWIAVEPNPTFSVKGNRDFKHHLPFHVVETAASSSTSDMKALPGPSPKMDVKKLLTTMHGLSELLTLAHGSESSDSPNAEELDLINSTVQNLNLYIQNNSQEHAGNQSVAQYNSYDLKLLPNKSKLSIRDHQFPTANNMTVDLDVKRKDKYSVVSRETVPGSRSYQYGATEDNGFGQVVPTNGYQQHQGVEQINQNALFYKSLWLKAEADRCLMVYETSLSNPYP | failed |
| MKIACVVLTYNRLSLLKRCIDSIRNQTYQEFDIYVIDNASTDGTAHWLSLQNDLTVISIHENKGPANGFYTCLQVPYDDGYDWIWMMDDDGVADKGQLEELLNKTVKNNLYFTNALVCNIDNPEKIAFGAKKTIDTQREELIKGNINPFNGTFIHRRVIEKNGNIMREMYMYGCETEYQLRAIKNGFQVATVTSAIHYHPSPKVSICHLIPYIKYCSIIDYPIDTLFYIRNKAYINYTYLGFKRSLFMITSYSLYYLFRLKIRKVLLFWKYYREGCKGVVGNKKQLEHHHHHH | not failed |
| MKIAVDAMGGDNAPQAIVEGVMLAKQDFPDIEFQLYGKEAEIKKYITDEKNITIIHTDEKIASDDEPVKAIRRKKTASMVLAAQAVKNGEADAIFSAGNTGALLAAGLFIVGRIKNVERPGLMSTLPVMGEPDKGFDMLDLGANADNKPEHLVQYAVLGSFYAEKVRNVQNPRVGLLNNGTEETKGSELTKKAFELLAADETINFVGNVEARELLNGVADVVVTDGFTGNAVLKSIEGTAMNMMSLLKTAILSEGVKGKMGALLLKNALHGMKDEMDYSKHGGAVLFGLKAPVIKTHGATGPDAVRYTIRQIHTMLETQVVPQLVEYYEGKAE | not failed |
| MKIAVVDGQGGGIGKAVVEKLRKELPEDTQIIALGTNALATTLMLKAGANEGASGENAIVFNAPKVDIIVGPIGIISANSMMGELTPLMAAAIAESPARKILIPLNRCNIEIAGVKNEPLPYYIEHAVEMVKKYVEGHIALEHHHHHH | not failed |
| MKIFAVVVTYNRLALLKKVIDLLKRQTRQLDSIVIVNNGSTDGTKEWLEQEKNITLINQSNSGGAGGFETGVKYAYENEADWIWMMDDDVFPNIDCLEKLLGWTSISQCIQPRRYYSDDVEVNFEQWLDPITYSKFGYWQEKSFNNGKKFCAINVGCFEGMFVSKSIVNKIGFPDKRFFIAEDDTIYGFAASFYTNVILVSDAIMVRARRSSDRSVSPMYTYYACRNFHLVYESLNLLLDKKNRFLYIKYIYQFVHQIYLSIFLYDNKMKHLISVFRGFYDCFRKKNGATYLEHHHHHH | failed |
| MKIFLDSAITTDIQDRLATEIIDGVTTNPTLIKKSNEDPDVVYKELYDMRVKDISIEVRGDTAQELAANGILYGRKYGEVATIKLPCTVEGIKACKKLSILGHKTNMTLVFSVSQAILCAKAGATYVSPFVGRLDQIGEDGIQLIRDISRVYCVSGVKTQILAASIRSPKQAEDAYLAGADICTLPVKVFDQMFKHTLTDDGLKQFAIDFGINF | failed |
| MKIGDKVRFLSEVGGGIVTGFKGKDFVLVEDADGFDIPMPIRECVVIEADDYNIKRKPAATAPKQEEPAKPAKPEMPVIQRQPEVRGGDTLNVFLAYVPEDAKAMMTTPFEAYLVNDSNYYLYYTYLSAEGKAWNNRSHGLVEPNTKLLLEEFTKDVLNEMERVAVQLIAFKDGKPAAIKPAVSVELRIDTVKFYKLHTFSASDFFEEPALIYDIVKDDVPAKQVYVSAEEIQSALLQKKFVDKPKSQPIMKPNHGQSGKNGIIEVDLHIDSLLDDTHGMSNSEILNYQLDKFREVIEANKEKREQKVVFIHGKGDGVLRKAIIDELKRKHSNYRYQDASFQEYGFGATMVTIK | not failed |
| MKIGFLGFGKSNRSLLKYLLNHQEAKFFVSEAKTLDGETKKFLEEHSVEYEEGGHTEKLLDCDVVYVSPGIKPDTSMIELLSSRGVKLSTELQFFLDNVDPKKVVGITGTDGKSTATALMYHVLSGRGFKTFLGGNFGTPAVEALEGEYDYYVLEMSSFQLFWSERPYLSNFLVLNISEDHLDWHSSFKEYVDSKLKPAFLQTEGDLFVYNKHIERLRNLEGVRSRKIPFWTDENFATEKELIVRGKKYTLPGNYPYQMRENILAVSVLYMEMFNELESFLELLRDFKPLPHRMEYLGQIDGRHFYNDSKATSTHAVLGALSNFDKVVLIMCGIGKKENYSLFVEKASPKLKHLIMFGEISKELAPFVGKIPHSIVENMEEAFEKAMEVSEKGDVILLSPGGASFDMYENYAKRGEHFREIFKRHGGDEV | failed |
| MKIIAFGASTSSTSINKALATFTANLVDGAQVQVLNINDYSVPMFSEDLEKEIGQAEGAQAFLRDLAQADAFVISFAEHNGHYPAAYKNLFDWATRINRALFGDKPAVYLSTSPGPGGAKSVLAAATASAPFFGGNVKASVSVPSFYDNFDLEQGVVTKPEIVAELKAAVAKLSA | failed |
| MKIIENYKGLPKSIYFLFLVQVINRLGDFVFPFLSLLLTQKLKFSMATTGTIVMIASVVGVPASFIGGKIADKSSRKLTYILGQSFAAIVILICGFINIPNLTVALLIASSFFNGFVRPTISAMVADLLPASKRQMGSSLLYLGINFGVAVGPIIAGFLFNNYLSLLFIIDALTSFIAVIIVLILIPDTKAVKHVGEDRIEEKEEKGNLLQILLKRPFVICFFGVDMIYSLAYRQCSFSMPIMMNKVFGYSGSSKYGFLMSVNALTVVALTIFVMHVTKRFRTLTNMAFSGLFYAVGFGMISIIGNSYLLFIISTVIWTMGEILGATNFGVYLANNSPRNCRARFGAVGELISSIGGAIGIFGAGKLIESYGINMIWRVIFIIVLLGAGLMLTLQYFQTKRVEQKIAHEI | failed |
| MKIIIIGCGKVGAYVAKQLLDSHHQVTIIERDQKRFEQVLQIFSQAEVLHGDGTSPILLEKCSVETANAVAYLTGKDEINLVGSTVAKFNYAVDRVVARVNNPKNEWLFNADMGVDSRVSQASLLASVIINEVNIESTATLLKLNDDENAIVEFVLSKGASVHGKTVKTINFPSDVVLISVHRQGQNIIPKGETVLLEGDHILAYTNSQNQEKLAQLFR | failed |
| MKIKAISIDIDGTITYPNRMIHEKALEAIRRAESLGIPIMLVTGNTVQFAEAASILIGTSGPVVAEDGGAISYKKKRIFLASMDEEWILWNEIRKRFPNARTSYTMPDRRAGLVIMRETINVETVREIINELNLNLVAVDSGFAIHVKKPWINKGSGIEKASEFLGIKPKEVAHVGDGENDLDAFKVVGYKVAVAQAPKILKENADYVTKKEYGEGGAEAIYHILEKFGYL | not failed |
| MKIKANGNEVQIEREMTIFEMLDALNVSMKEYVTVQLNGQIIPRSEYDKVTVKDGDEVEFLYFMGGGLL | failed |
| MKIKGTEKVPILIFLGALAIGIAFLPPENSLTYDGALYINIARSLTKSVTSFTYQGIYMMYRPPLYPYTLSIFFRVFSSNHLLIARLVSVFSFALTSVLVYLLTLEMFRDSVKGIIASLFYIFNPLAFTMAGRELVHSEFTFFYTLAIYLLYTGKVRKSNTRIYLSFIAAGLAILTRYTGLSIVLVFLTYLWLTEDWNWVRRREYLIGFALLFLTLLPWLYMGHLYYGGFFRPFKIASKVVTLDRPVSAFDFIKMVIGDMGFLLPALAVLGFFRVKKDENGWLILSWLVMGGGGILTVTHKESRFITFLSPVIAILASEGIYLLSNLTPRIRRNNIVAVILALLLLIPIGMKADNLRDRWSIVGVYDSNVVRYVSEHYDGKKILVSPYLYTIAGYYYPNAEIDMILNRKEIVEKIAKGYYDVIIHKDPNVYLNIEESGNYVLVKEFHGGRFKVYINRRSLAK | failed |
| MKILILGGTRFLGRAFVDEALQRGHEVTLFNRGTNKEVFPEVEQLIGDRNNDVSSLKNRKWDVVIDTCGFSPHHIRNVGEVLNDNIEHYVFISSLSVYKDWILHDIKEDYILQPEPTDDQIKAVENGEVSPYEYYGALKVLCEKEAEKYWPGRVLHVRAGLLSGMFDYTDRLPYWIQRVAKGGKVLVPGRKDRPVQIVDIKDVANWGLNMAENKNAGTFNVTGPNYDLTMEELLNTCKKVMNSDAEFVWVEESFMNEHNVQPWTEMPLWLPEIFSLEGETKPWKGGFTISIENAVKEGLTFRRIEETVTDVYEWMKSTDEWELKAGISGEREKELLERWYQ | failed |
| MKILLFICGEGLGHTGRCLALGKEFLAAGHEVNFGAYGYSKGLVQKTGYSAYEIPSEIKLAGEAGTFDIRKSIKETLNNLSPSGFRKILRLIEKLDPDVVLSDGYYTGILAAQKRKVPVYFIGHQFNMEEFFWKKGLFAGIAGIFVKRFYNYVFSSVDGIIVPDYPLPYSVNRKNFTISRAVNDNIFFSGPLIRCRYQEAGEKAFKRPNVLSTIGAFGYRAAVFRNVLEAAKLDPSIYYTFISGPEIDPEQFSKVPENVEFTGFTENPFPYYKGSDLVITAGGHGTIMESLAFGLPILSFPDEKHAEQENNASVLEEAGYGKRMSYLTPPEVILACIREIFEDENYSKKTRRLMELAEVLDGPAAVRKFLEEKHRGLEHHHHHH | failed |
